Laboratory results as given in patent EP4630447A2.

Columns and labels:
Test in all cases: sVNT, Table 2
[1] = molecular target: SARS-CoV-2 spike trimer, XBB (SARS-CoV-2)
[2] = molecular target: SARS-CoV-2 spike trimer, XBB.1.5 (SARS-CoV-2)
[3] = molecular target: SARS-CoV-2 spike trimer, BQ.1.1 (SARS-CoV-2)
[4] = molecular target: SARS-CoV-2 spike trimer, XBB.1 (SARS-CoV-2)
[5] = molecular target: SARS-CoV-2 spike trimer, BQ.1 (SARS-CoV-2)

Measured: IC50

Bebtelovimab (antibody)
> 1 µg/mL: all assays above
